# Molecular target: the molecule itself
# Assay: SDS-PAGE without mercaptoethanol, subunit-subunit disulfide-linked homodimer
protein,measurement,value
"modified water-soluble PQQGDH Ser415Cys (Acinetobacter calcoaceticus) (enzyme, Cys415 of each subunit joined in an inter-subunit disulfide bond, also called modified enzyme Ser415Cys; Ser4l5Cys) DVPLTPSQFAKAKSENFDKKVILSNLNKPHALLWGPDNQIWLTERATGKILRVNPESGSVKTVFQVPEIVNDADGQNGLLGFAFHPDFKNNPYIYISGTFKNPKSTDKELPNQTIIRRYTYNKSTDTLEKPVDLLAGLPSSKDHQSGRLVIGPDQKIYYTIGDQGRNQLAYLFLPNQAQHTPTQQELNGKDYHTYMGKVLRLNLDGSIPKDNPSFNGVVSHIYTLGHRNPQGLAFTPNGKLLQSEQGPNSDDEINLIVKGGNYGWPNVAGYKDDSGYAYANYSAAANKSIKDLAQNGVKVAAGVPVTKESEWTGKNFVPPLKTLYTVQDTYNYNDPTCGEMTYICWPTVAPSSAYVYKGGKKAITGWENTLLVPSLKRGVIFRIKLDPTYCTTYDDAVPMFKSNNRYRDVIASPDGNVLYVLTDTAGNVQKDDGSVTNTLENPGSLIKFTYKAK",binding result,binds
